Source: the supplement of paper PMC5998384

Columns and labels:
HeLa Kyoto [1] = test: solubility in G1/S (NP-40 vs SDS abundance) (log2 ratio); higher = more soluble; settings: cell cycle stage: G1/S
HeLa Kyoto [2] = test: melting temperature (median over replicates), in situ; higher = more thermally stable
HeLa Kyoto [3] = test: solubility change mitosis vs G1/S (difference of NP-40 vs SDS log2 ratios) (log2 ratio difference); higher = more soluble in mitosis
HeLa Kyoto [4] = test: thermal stability score vs G1/S (z-score of summed log2 fold changes over temperatures); higher = more thermally stable than in G1/S
[5] = cell cycle stage: early G1 (4.5 h after nocodazole release)
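For melting temperature (median over replicates), in situ in this document: HeLa Kyoto cells synchronized by double thymidine or nocodazole block, proteins quantified by TMT10plex mass spectrometry, three independent biological replicates.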
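For solubility change mitosis vs G1/S (difference of NP-40 vs SDS log2 ratios) in this document: synchronized HeLa Kyoto cells (double thymidine block for G1/S, nocodazole release for mitosis), protein amounts in NP-40 versus SDS lysates quantified by mass spectrometry, three biological replicates.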
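For solubility in G1/S (NP-40 vs SDS abundance) in this document: HeLa Kyoto cells arrested at G1/S by double thymidine block, proteins quantified by TMT10plex mass spectrometry in mild NP-40 versus SDS extracts, three biological replicates.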
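For thermal stability score vs G1/S (z-score of summed log2 fold changes over temperatures) in this document: synchronized HeLa Kyoto cells, proteins quantified by TMT10plex mass spectrometry, three biological replicates, mitosis taken 0.5 h after nocodazole release, G1/S directly after double thymidine block.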

Sequence of WRAP53 (chain, as listed by the source): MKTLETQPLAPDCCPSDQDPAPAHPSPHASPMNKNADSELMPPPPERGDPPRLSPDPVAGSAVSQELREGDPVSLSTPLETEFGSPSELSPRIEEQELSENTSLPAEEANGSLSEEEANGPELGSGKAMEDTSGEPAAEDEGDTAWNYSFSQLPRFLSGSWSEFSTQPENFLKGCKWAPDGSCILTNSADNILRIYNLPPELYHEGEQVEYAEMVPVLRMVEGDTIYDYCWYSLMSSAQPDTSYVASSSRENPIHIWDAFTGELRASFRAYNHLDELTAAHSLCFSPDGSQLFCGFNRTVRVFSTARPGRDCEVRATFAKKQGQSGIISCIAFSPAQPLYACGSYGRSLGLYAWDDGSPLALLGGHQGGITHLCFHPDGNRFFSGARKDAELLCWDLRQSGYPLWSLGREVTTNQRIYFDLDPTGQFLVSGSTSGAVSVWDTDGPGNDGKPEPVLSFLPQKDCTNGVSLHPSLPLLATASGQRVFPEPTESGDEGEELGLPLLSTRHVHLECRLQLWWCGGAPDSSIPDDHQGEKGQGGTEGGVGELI

| Substance | solubility in G1/S (log2) (HeLa Kyoto [1]) | melting temperature (HeLa Kyoto [2]; cell cycle stage: G1/S) [°C] | melting temperature (HeLa Kyoto [2]; cell cycle stage: mitosis) [°C] | solubility change mitosis (log2) (HeLa Kyoto [3]) | thermal stability score (HeLa Kyoto [4]; [5]) | thermal stability score (HeLa Kyoto [4]; cell cycle stage: mitosis) |
| --- | --- | --- | --- | --- | --- | --- |
| MENMAEEELLPLEKEEVEVAQVQVPTPARDSAGVPAPAPDSALDSAPTPASAPAPAPALAQAPALSPSLASAPEEAKSKRHISIQRQLADLENLAFVTDGNFDSASSLNSDNLDAGNRQACPLCPKEKFRACNSHKLRRHLQNLHWKVSVEFEGYRMCICHLPCRPVKPNIIGEQITSKMGAHYHCIICSATITRRTDMLGHVRRHMNKGETKSSYIAASTAKPPKEILKEADTDVQVCPNYSIPQKTDSYFNPKMKLNRQLIFCTLAALAEERKPLECLDAFGATGIMGLQWAKHLGNAVKVTINDLNENSVTLIQENCHLNKLKVVVDSKEKEKSDDILEEGEKNLGNIKVTKMDANVLMHLRSFDFIHLDPFGTSVNYLDSAFRNIRNLGIVSVTSTDISSLYAKAQHVARRHYGCNIVRTEYYKELAARIVVAAVARAAARCNKGIEVLFAVALEHFVLVVVRVLRGPTSADETAKKIQYLIHCQWCEERIFQKDGNMVEENPYRQLPCNCHGSMPGKTAIELGPLWSSSLFNTGFLKRMLFESLHHGLDDIQTLIKTLIFESECTPQSQFSIHASSNVNKQEENGVFIKTTDDTTTDNYIAQGKRKSNEMITNLGKKQKTDVSTEHPPFYYNIHRHSIKGMNMPKLKKFLCYLSQAGFRVSRTHFDPMGVRTDAPLMQFKSILLKYSTPTYTGGQSESHVQSASEDTVTERVEMSVNDKAEASGCRRW [TRMT1L] | -0.537 | 51.8 | 50.9 | 0.324 | -0.774 | -3 |
| MEVPPPAPRSFLCRALCLFPRVFAAEAVTADSEVLEERQKRLPYVPEPYYPESGWDRLRELFGKDEQQRISKDLANICKTAATAGIIGWVYGGIPAFIHAKQQYIEQSQAEIYHNRFDAVQSAHRAATRGFIRYGWRWGWRTAVFVTIFNTVNTSLNVYRNKDALSHFVIAGAVTGSLFRINVGLRGLVAGGIIGALLGTPVGGLLMAFQKYSGETVQERKQKDRKALHELKLEEWKGRLQVTEHLPEKIESSLQEDEPENDAKKIEALLNLPRNPSVIDKQDKD [TIMMDC1] | -0.03 | 55.6 | 55.2 | 0.01 | -2.95 | -2.24 |
| MEASVILPILKKKLAFLSGGKDRRSGLILTIPLCLEQTNMDELSVTLDYLLSIPSEKCKARGFTVIVDGRKSQWNVVKTVVVMLQNVVPAEVSLVCVVKPDEFWDKKVTHFCFWKEKDRLGFEVILVSANKLTRYIEPCQLTEDFGGSLTYDHMDWLNKRLVFEKFTKESTSLLDELALINNGSDKGNQQEKERSVDLNFLPSVDPETVLQTGHELLSELQQRRFNGSDGGVSWSPMDDELLAQPQVMKLLDSLREQYTRYQEVCRQRSKRTQLEEIQQKVMQVVNWLEGPGSEQLRAQWGIGDSIRASQALQQKHEEIESQHSEWFAVYVELNQQIAALLNAGDEEDLVELKSLQQQLSDVCYRQASQLEFRQNLLQAALEFHGVAQDLSQQLDGLLGMLCVDVAPADGASIQQTLKLLEEKLKSVDVGLQGLREKGQGLLDQISNQASWAYGKDVTIENKENVDHIQGVMEDMQLRKQRCEDMVDVRRLKMLQMVQLFKCEEDAAQAVEWLSELLDALLKTHIRLGDDAQETKVLLEKHRKFVDVAQSTYDYGRQLLQATVVLCQSLRCTSRSSGDTLPRLNRVWKQFTIASEERVHRLEMAIAFHSNAEKILQDCPEEPEAINDEEQFDEIEAVGKSLLDRLTVPVVYPDGTEQYFGSPSDMASTAENIRDRMKLVNLKRQQLRHPEMVTTES [SESTD1] | 0.132 |  | 49.5 | -0.126 | -0.259 | 0.238 |
| MYO9B | -0.141 | 50.4 | 49.6 | 0.00466 | -0.189 | -0.197 |
| MQKASVLLFLAWVCFLFYAGIALFTSGFLLTRLELTNHSSCQEPPGPGSLPWGSQGKPGACWMASRFSRVVLVLIDALRFDFAQPQHSHVPREPPVSLPFLGKLSSLQRILEIQPHHARLYRSQVDPPTTTMQRLKALTTGSLPTFIDAGSNFASHAIVEDNLIKQLTSAGRRVVFMGDDTWKDLFPGAFSKAFFFPSFNVRDLDTVDNGILEHLYPTMDSGEWDVLIAHFLGVDHCGHKHGPHHPEMAKKLSQMDQVIQGLVERLENDTLLVVAGDHGMTTNGDHGGDSELEVSAALFLYSPTAVFPSTPPEEPEVIPQVSLVPTLALLLGLPIPFGNIGEVMAELFSGGEDSQPHSSALAQASALHLNAQQVSRFLHTYSAATQDLQAKELHQLQNLFSKASADYQWLLQSPKGAEATLPTVIAELQQFLRGARAMCIESWARFSLVRMAGGTALLAASCFICLLASQWAISPGFPFCPLLLTPVAWGLVGAIAYAGLLGTIELKLDLVLLGAVAAVSSFLPFLWKAWAGWGSKRPLATLFPIPGPVLLLLLFRLAVFFSDSFVVAEARATPFLLGSFILLLVVQLHWEGQLLPPKLLTMPRLGTSATTNPPRHNGAYALRLGIGLLLCTRLAGLFHRCPEETPVCHSSPWLSPLASMVGGRAKNLWYGACVAALVALLAAVRLWLRRYGNLKSPEPPMLFVRWGLPLMALGTAAYWALASGADEAPPRLRVLVSGASMVLPRAVAGLAASGLALLLWKPVTVLVKAGAGAPRTRTVLTPFSGPPTSQADLDYVVPQIYRHMQEEFRGRLERTKSQGPLTVAAYQLGSVYSAAMVTALTLLAFPLLLLHAERISLVFLLLFLQSFLLLHLLAAGIPVTTPGPFTVPWQAVSAWALMATQTFYSTGHQPVFPAIHWHAAFVGFPEGHGSCTWLPALLVGANTFASHLLFAVGCPLLLLWPFLCESQGLRKRQQPPGNEADARVRPEEEEEPLMEMRLRDAPQHFYAALLQLGLKYLFILGIQILACALAASILRRHLMVWKVFAPKFIFEAVGFIVSSVGLLLGIALVMRVDGAVSSWFRQLFLAQQR [PIGO] | -0.193 | 53.6 | 52.7 | 0.0305 | -0.415 | -0.374 |
| MDGEEKTYGGCEGPDAMYVKLISSDGHEFIVKREHALTSGTIKAMLSGPGQFAENETNEVNFREIPSHVLSKVCMYFTYKVRYTNSSTEIPEFPIAPEIALELLMAANFLDC [TCEB1] | 0.256 | 52.2 | 52.3 | -0.0906 | -1.38 | -1.62 |
| MASKEMFEDTVEERVINEEYKIWKKNTPFLYDLVMTHALQWPSLTVQWLPEVTKPEGKDYALHWLVLGTHTSDEQNHLVVARVHIPNDDAQFDASHCDSDKGEFGGFGSVTGKIECEIKINHEGEVNRARYMPQNPHIIATKTPSSDVLVFDYTKHPAKPDPSGECNPDLRLRGHQKEGYGLSWNSNLSGHLLSASDDHTVCLWDINAGPKEGKIVDAKAIFTGHSAVVEDVAWHLLHESLFGSVADDQKLMIWDTRSNTTSKPSHLVDAHTAEVNCLSFNPYSEFILATGSADKTVALWDLRNLKLKLHTFESHKDEIFQVHWSPHNETILASSGTDRRLNVWDLSKIGEEQSAEDAEDGPPELLFIHGGHTAKISDFSWNPNEPWVICSVSEDNIMQIWQMAENIYNDEESDVTTSELEGQGS [RBBP7] | 0.0292 | 53 | 53.3 | -0.157 | -0.845 | -1.83 |
| MGVQGFQDYIEKHCPSAVVPVELQKLARGSLVGGGRQRPPQTPLRLLVDADNCLHRLYGGFYTDWVSGGQWNHMLGYLAALAKACFGGNIELFVFFNGALEKARLHEWVKRQGNERQTAQQIVSHVQNKGTPPPKVWFLPPVCMAHCIRLALIRFHVKVAQSIEDHHQEVIGFCRENGFHGLVAYDSDYALCNIPYYFSAHALKLSRNGKSLTTSQYLMHEVAKQLDLNPNRFPIFAALLGNHILPDEDLASFHWSLLGPEHPLASLKVRAHQLVLPPCDVVIKAVADYVRNIQDTSDLDAIAKDVFQHSQSRTDDKVIRFKRAIGYYSATSKPMSFHPPHYLAARPGPFGMPGMVPPHVPPQMLNIPQTSLQAKPVAPQVPSPGGAPGQGPYPYSLSEPAPLTLDTSGKNLTEQNSYSNIPHEGKHTPLYERSSPINPAQSGSPNHVDSAYFPGSSTSSSSDNDEGSGGATNHISGNKIGWEKTGSHSEPQARGDPGDQTKAEGSSTASSGSQLAEGKGSQMGTVQPIPCLLSMPTRNHMDITTPPLPPVAPEVLRVAEHRHKKGLMYPYIFHVLTKGEIKIAVSIEDEANKDLPPAALLYRPVRQYVYGVLFSLAESRKKTERLAFRKNRLPPEFSPVIIKEWAAYKGKSPQTPELVEALAFREWTCPNLKRLWLGKAVEDKNRRMRAFLACMRSDTPAMLNPANVPTHLMVLCCVLRYMVQWPGARILRRQELDAFLAQALSPKLYEPDQLQELKIENLDPRGIQLSALFMSGVDMALFANDACGQPIPWEHCCPWMYFDGKLFQSKLLKASREKTPLIDLCDGQADQAAKVEKMRQSVLEGLSFSRQSHTLPFPPPPALPFYPASAYPRHFGPVPPSQGRGRGFAGVCGFGGPYGETVATGPYRAFRVAAASGHCGAFSGSDSSRTSKSQGGVQPIPSQGGKLEIAGTVVGHWAGSRRGRGGRGPFPLQVVSVGGPARGRPRGVISTPVIRTFGRGGRYYGRGYKNQAAIQGRPPYAASAEEVAKELKSKSGESKSSAMSSDGSLAENGVMAEEKPAPQMNGSTGDARAPSHSESALNNDSKTCNTNPHLNALSTDSACRREAALEAAVLNKEE [FAM120A] | -0.143 | 50.9 | 50.6 | -0.0663 | -0.707 | -2.24 |
| WRAP53 | -0.0145 | 53.7 | 53.4 | -0.144 | -1.59 | -0.902 |
| MLRFLAPRLLSLQGRTARYSSAAALPSPILNPDIPYNQLFINNEWQDAVSKKTFPTVNPTTGEVIGHVAEGDRADVDRAVKAAREAFRLGSPWRRMDASERGRLLNRLADLVERDRVYLASLETLDNGKPFQESYALDLDEVIKVYRYFAGWADKWHGKTIPMDGQHFCFTRHEPVGVCGQIIPWNFPLVMQGWKLAPALATGNTVVMKVAEQTPLSALYLASLIKEAGFPPGVVNIITGYGPTAGAAIAQHVDVDKVAFTGSTEVGHLIQKAAGDSNLKRVTLELGGKSPSIVLADADMEHAVEQCHEALFFNMGQCCCAGSRTFVEESIYNEFLERTVEKAKQRKVGNPFELDTQQGPQVDKEQFERVLGYIQLGQKEGAKLLCGGERFGERGFFIKPTVFGGVQDDMRIAKEEIFGPVQPLFKFKKIEEVVERANNTRYGLAAAVFTRDLDKAMYFTQALQAGTVWVNTYNIVTCHTPFGGFKESGNGRELGEDGLKAYTEVKTVTIKVPQKNS [ALDH1B1] | 0.229 | 52.6 | 52.8 | -0.0523 | -1.97 | -1.54 |
| MNWNKGGPGTKRGFGFGGFAISAGKKEEPKLPQQSHSAFGATSSSSGFGKSAPPQLPSFYKIGSKRANFDEENAYFEDEEEDSSNVDLPYIPAENSPTRQQFHSKPVDSDSDDDPLEAFMAEVEDQAARDMKRLEEKDKERKNVKGIRDDIEEEDDQEAYFRYMAENPTAGVVQEEEEDNLEYDSDGNPIAPTKKIIDPLPPIDHSEIDYPPFEKNFYNEHEEITNLTPQQLIDLRHKLNLRVSGAAPPRPGSSFAHFGFDEQLMHQIRKSEYTQPTPIQCQGVPVALSGRDMIGIAKTGSGKTAAFIWPMLIHIMDQKELEPGDGPIAVIVCPTRELCQQIHAECKRFGKAYNLRSVAVYGGGSMWEQAKALQEGAEIVVCTPGRLIDHVKKKATNLQRVSYLVFDEADRMFDMGFEYQVRSIASHVRPDRQTLLFSATFRKKIEKLARDILIDPIRVVQGDIGEANEDVTQIVEILHSGPSKWNWLTRRLVEFTSSGSVLLFVTKKANAEELANNLKQEGHNLGLLHGDMDQSERNKVISDFKKKDIPVLVATDVAARGLDIPSIKTVINYDVARDIDTHTHRIGRTGRAGEKGVAYTLLTPKDSNFAGDLVRNLEGANQHVSKELLDLAMQNAWFRKSRFKGGKGKKLNIGGGGLGYRERPGLGSENMDRGNNNVMSNYEAYKPSTGAMGDRLTAMKAAFQSQYKSHFVAASLSNQKAGSSAAGASGWTSAGSLNSVPTNSAQQGHNSPDSPVTSAAKGIPGFGNTGNISGAPVTYPSAGAQGVNNTASGNNSREGTGGSNGKRERYTENRGSSRHSHGETGNRHSDSPRHGDGGRHGDGYRHPESSSRHTDGHRHGENRHGGSAGRHGENRGANDGRNGESRKEAFNRESKMEPKMEPKVDSSKMDKVDSKTDKTADGFAVPEPPKRKKSRWDS [DDX42] | -0.252 | 47.2 | 48.8 | 0.145 | 3.02 | 7.75 |
